Data: patent publication US20050170334A1

B1: L66 (antibody, V domains shown)
VH: EVQLVESGGGVVRPGGSLRLSCAASGFTFDDYGMSWVRQAPGKGLEWVSGINWNGGSTGYADSVKGRFTISRDNAKNSLYLQMNSLRAEDTALYYCARDRVTMVRGVIMDYYGMDVWGQGTTVTVSS
VL: QTVVTQEPSLTVSPRGTVTLTCSSSTGAVTSGYYPGWFQLKPGQAPMSLIYSARKKHSWTPARFSGSLLGGKAALTLSGVQPEDEAEYYCLLYYGGAYVFGTGTKVTVLG
B2: C40G1 (antibody, V domains shown)
VH: QLQLQESGPGLVKPSETLSLTCTVSGGSISSSFYYCGWIRQPPGKGLEWIGSIYYRGSTYYNPSLKSRVTISVDTSKNQFSLKLSSVTAADTAVYYCARRVTMVRGVKGDYFDYWGQGTLVTVSS
VL: DIQMTQSPSSLSASVGDRVTITCRASQGISSWLAWYQQKPEKVPKSLIYAASSLQSGVPSRFSGSGSGTDFTLTISSLQPEDFATYYCQQYNYYPLTFGGGTKVEIKR

How the values were obtained:
[1] = biological target: M2 expressed on A/HK/8/68 infected MDCK cells (influenza A virus A/HK/8/68); assay: cell-based ELISA, infected MDCK cells
CM12 (influenza A virus) = assay: ELISA, peptide coated, antibody 10 µg/ml
CM13 (influenza A virus) = assay: ELISA, peptide coated, antibody 10 µg/ml
CM14 (influenza A virus) = assay: ELISA, peptide coated, antibody 10 µg/ml
CM15 (influenza A virus) = assay: ELISA, peptide coated, antibody 10 µg/ml
CM16 (influenza A virus) = assay: ELISA, peptide coated, antibody 10 µg/ml
CM17 (influenza A virus) = assay: ELISA, peptide coated, antibody 10 µg/ml
[2] = biological target: M2 peptide (extracellular 23-amino-acid M2 peptide) (influenza A virus); assay: ELISA, peptide coated, antibody 10 µg/ml
NM11 (influenza A virus) = assay: ELISA, peptide coated, antibody 10 µg/ml
NM12 (influenza A virus) = assay: ELISA, peptide coated, antibody 10 µg/ml
NM13 (influenza A virus) = assay: ELISA, peptide coated, antibody 10 µg/ml
NM16 (influenza A virus) = assay: ELISA, peptide coated, antibody 10 µg/ml
NM17 (influenza A virus) = assay: ELISA, peptide coated, antibody 10 µg/ml
M12 (influenza A virus) = assay: ELISA, peptide coated, antibody 10 µg/ml
NM14 (influenza A virus) = assay: ELISA, peptide coated, antibody 10 µg/ml

Binder	EC50 [1] [µg/mL]	ELISA (OD450) (CM12 (influenza A virus))	ELISA (OD450) (CM13 (influenza A virus))	ELISA (OD450) (CM14 (influenza A virus))	ELISA (OD450) (CM15 (influenza A virus))	ELISA (OD450) (CM16 (influenza A virus))	ELISA (OD450) (CM17 (influenza A virus))	ELISA (OD450) [2] [OD450]	ELISA (OD450) (NM11 (influenza A virus))	ELISA (OD450) (NM12 (influenza A virus))	ELISA (OD450) (NM13 (influenza A virus))	ELISA (OD450) (NM16 (influenza A virus))	ELISA (OD450) (NM17 (influenza A virus))	ELISA (OD450) (M12 (influenza A virus))	ELISA (OD450) (NM14 (influenza A virus))
B1	0.229	0.08	0.08	0.08	0.09	0.09	0.12	0.51	0.09	0.12	0.13	1.04	0.99	–	–
B2	–	0.1	0.11	0.1	0.11	0.76	2.78	–	–	0.12	2.41	–	–	2.71	2.49
